# Measured values as given in FireProtDB (doi:10.1016/j.jmb.2003.10.041).
# B1: Bacteriorhodopsin, P02945 (parent)
# chain: MLELLPTAVEGVSQAQITGRPEWIWLALGTALMGLGTLYFLVKGMGVSDPDAKKFYAITTLVPAIAFTMYLSMLLGYGLTMVPFGGEQNPIYWARYADWLFTTPLLLLDLALLVDADQGTILALVGADGIMIGTGLVGALTKVYSYRFVWWAISTAAMLYILYVLFFGFTSKAESMRPEVASTFKVLRNVTVVLWSAYPVVWLIGSEGAGIVPLNIETLLFMVLDVSAKVGFGLILLRSRAIFGEAEAPEPSAGDGAAATSD
# Variants of: B1
# Settings: Halobacterium salinarum (strain ATCC 700922 / JCM 11081 / NRC-1); pH 6; 25 °C; SDS; Absorbance; sodium phosphate 10 mM; reversible: yes (90%); structure 2BRD; whole UniProt chain shown
row,Variant,ddG of mutation (higher = less stable)
1,F67A,1 kcal/mol
2,I65A,1.4 kcal/mol
3,I58A,1.9 kcal/mol
4,D51A,0.5 kcal/mol
5,T68A,0.1 kcal/mol
6,L75A,-0.5 kcal/mol
7,T59A,2.2 kcal/mol
8,L71A,-0.3 kcal/mol
9,S72A,-0.1 kcal/mol
10,P50A,0.2 kcal/mol
11,M73A,0.8 kcal/mol
12,K54A,1.6 kcal/mol
13,L61A,0.1 kcal/mol
14,V62A,-0.7 kcal/mol
15,Y56A,1.3 kcal/mol
16,F55A,1.6 kcal/mol
17,K53A,0.3 kcal/mol
18,M69A,-1.4 kcal/mol
19,D49A,0.9 kcal/mol
20,P63A,-0.1 kcal/mol
21,L74A,-0.7 kcal/mol
22,T60A,1 kcal/mol
